Measurements published in US20180282407A1 (FUKUSHIMA MEDICAL UNIVERSITY, published 2018).
Like-named read-outs stand apart in the source and are kept apart here. Ends that are not written are not given here.

Tests used:
[1] = target: human CD81 protein (human) (UniProt P60033); assay: cell-based or functional assay
[2] = target: human CD81 protein (human) (UniProt P60033); assay: cell-based or functional assay; remark: listed apart in the source
Ocln1 = target: T1, Ocln1 (human); assay: ELISA on coated peptide, acidic conditions (2 N HCl), HRP anti-mouse IgG
T1 construct: has a cysteine and can form a dimer, so the ELISA was also run under acidic conditions (2 N HCl); also called Ocln1 peptide
T1 peptide: ALCNQFYTPA
Text: (§1) Accordingly, Ocln1 consisting of the amino acid sequence represented by SEQ ID NO: 6 ([…]) by the truncation of 7 residues from the […] side of the amino acid sequence represented by SEQ ID NO: 7, Ocln2 consisting of the amino acid sequence represented by SEQ ID NO: 11 ([…]) by the truncation of 7 residues from the 5′-terminal side thereof, and Ocln3 consisting of the amino acid sequence represented by SEQ ID NO: 12 ([…]) by the truncation of 3 to 4 residues from both terminal sides were prepared as antigenic peptides (FIG. 11A). KLH-Ocln peptide (1 μg/well) was used as a positive control antigen.
(§2) Each antigenic peptide was added at 25, 50, 100, and 500 μg/well to an antigen sensitization microplate (Nunc/Thermo Fisher Scientific Inc.) and incubated overnight at room temperature. After blocking with 5% BSA/PBS/0.09% NaN₃ at 37° C. for 2 hours, the 67-2 antibody or normal mouse IgG was added thereto and incubated at room temperature for 1 hour. Ocln1 has a cysteine residue in the sequence and is therefore capable of forming a dimer. Therefore, the analysis was also conducted under acidic conditions (2 N HCl). […] The absorbance at 450 nm/655 nm was measured using a microplate reader. […]

Ocln3 = target: T2, Ocln3 (human); assay: ELISA on coated peptide
T2 construct: also called Ocln3 peptide
T2 peptide: QFYTPAATG
Text: as §1, §2

[3] = target: T3, antigenic occludin peptide of SEQ ID NO: 7 (positions 214 to 230 of human occludin, second extracellular … (human, also: KLH carrier linked at N-terminus for immunisation, ELISA form not given here)); assay: ELISA of subclone culture supernatants on the antigen
T3 construct: also called the antigen; antigenic peptide
T3 peptide: ALCNQFYTPAATGLYVD

Chain of human CD81 protein (human) (P60033 whole entry): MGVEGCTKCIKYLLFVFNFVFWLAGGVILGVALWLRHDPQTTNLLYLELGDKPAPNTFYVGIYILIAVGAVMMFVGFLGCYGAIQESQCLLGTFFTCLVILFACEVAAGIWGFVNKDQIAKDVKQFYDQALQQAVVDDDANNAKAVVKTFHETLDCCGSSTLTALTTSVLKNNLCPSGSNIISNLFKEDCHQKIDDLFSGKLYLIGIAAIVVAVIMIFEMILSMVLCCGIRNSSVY

Molecule: anti-human CD81 antibody (JS-81 clone; BD Pharmingen)
- infection inhibition rate, HCVpv 9-3, Huh7.5.1 monolayer culture (luciferase) [1]: 98%
- infection inhibition rate, HCVpv con1, Huh7.5.1 monolayer culture (luciferase) [1]: 99%
- infection inhibition rate, HCVpv H77, Huh7.5.1 monolayer culture (luciferase) [2]: 99.1%
- infection inhibition rate, HCVpv con1, Huh7.5.1 monolayer culture (luciferase) [2]: 99.8%

B1: mouse anti-human occludin monoclonal antibody clone 67-2 (antibody, IgG1, V domains shown)
VH: EVQLQQSGPELVKPGASVKISCKASGYTFTDYIMDWVKQSHGKSLEWIGYIYPNNGGTGYNQKFKSKATLTIDKSSSTAYMELHSLTSEDSAVYYCAREDGDYGYFDVWGAGTTVTVSS
VL: QAVVTQESALTTSPGGTVILTCRSSTGAVTTSNYANWVQEKPDHLFTGLIGGTSNRAPGVPVRFSGSLIGDKAALTITGAQTEDDAMYFCALWYSTHYVFGGGTKVTVLG
notes: Mouse antibody from hybridoma C67-2; also called 67-2 antibody; anti-occludin antibody 67-2
- binding result (Ocln1): binds
- binding result (Ocln3): no binding
- binding result [3]: binds
